Measured values as given in PMC4890040.
One block for each substance: values may come before it.

How the values were obtained:
Assay in all cases: SEC; protein alone, prior to DNA binding; Superdex 200, 20 mM Tris pH 7.5, 0.2 M NaCl, 5 mM DTT, 4 °C, 50 μL/min; peaks assigned to monomer and dimer by elution times
[1] = target: S2-Tgf2TPase (truncated Tgf2 transposase, 124-686 aa) (goldfish (Carassius auratus))
[2] = target: full length Tgf2 transposase (L-Tgf2TPase) (goldfish (Carassius auratus))
[3] = target: S1-Tgf2TPase (truncated Tgf2 transposase, 110-686 aa) (goldfish (Carassius auratus))
[4] = target: L-Tgf2TPase(D228N, E648Q) (goldfish (Carassius auratus))

- stoichiometry N [1]: 2
Substance: S2-Tgf2TPase (truncated Tgf2 transposase, 124-686 aa) (domain or fragment)

- stoichiometry N [2]: 2
Substance: full length Tgf2 transposase (L-Tgf2TPase) (enzyme)

- stoichiometry N [3]: 2
Substance: S1-Tgf2TPase (truncated Tgf2 transposase, 110-686 aa) (domain or fragment)

- stoichiometry N [4]: 2
Substance: L-Tgf2TPase(D228N, E648Q) (enzyme)
